# According to patent US20150246136A1 (Bayer, published 2015):
# Target: Mesothelin (SwissProt reference Q13421-3) (Homo sapiens, UniProt Q13421 37-622)
# Test: cell-based or functional assay
row,Binder,"IC50 (nM), HT29 meso+ cells, MTT proliferation assay [nM]"
1,"Example 139, conjugate of anti-mesothelin antibody MF-Ta (antibody, human IgG1, lambda, V domains shown, toxophore-linker on Cys sulfur, sites not given) VH: QVELVQSGAEVKKPGESLKISCKGSGYSFTSYWIGWVRQAPGKGLEWMGIIDPGDSRTRYSPSFQGQVTISADKSISTAYLQWSSLKASDTAMYYCARGQLYGGTYMDGWGQGTLVTVSS VL: DIALTQPASVSGSPGQSITISCTGTSSDIGGYNSVSWYQQHPGKAPKLMIYGVNNRPSGVSNRFSGSKSGNTASLTISGLQAEDEADYYCSSYDIESATPVFGGGTKLTVLG",70
2,"Example 150, conjugate of anti-mesothelin antibody MF-Ta (antibody, human IgG1, lambda, V domains shown, toxophore-linker on Lys NH, sites not given) VH: QVELVQSGAEVKKPGESLKISCKGSGYSFTSYWIGWVRQAPGKGLEWMGIIDPGDSRTRYSPSFQGQVTISADKSISTAYLQWSSLKASDTAMYYCARGQLYGGTYMDGWGQGTLVTVSS VL: DIALTQPASVSGSPGQSITISCTGTSSDIGGYNSVSWYQQHPGKAPKLMIYGVNNRPSGVSNRFSGSKSGNTASLTISGLQAEDEADYYCSSYDIESATPVFGGGTKLTVLG",< 0.1
3,"Example 147, conjugate of anti-mesothelin antibody MF-Ta (antibody, human IgG1, lambda, V domains shown, toxophore-linker on Lys NH, sites not given) VH: QVELVQSGAEVKKPGESLKISCKGSGYSFTSYWIGWVRQAPGKGLEWMGIIDPGDSRTRYSPSFQGQVTISADKSISTAYLQWSSLKASDTAMYYCARGQLYGGTYMDGWGQGTLVTVSS VL: DIALTQPASVSGSPGQSITISCTGTSSDIGGYNSVSWYQQHPGKAPKLMIYGVNNRPSGVSNRFSGSKSGNTASLTISGLQAEDEADYYCSSYDIESATPVFGGGTKLTVLG",5.6
4,"Example 157, conjugate of anti-mesothelin antibody MF-Ta (antibody, human IgG1, lambda, V domains shown, toxophore-linker, coupling residue not stated) VH: QVELVQSGAEVKKPGESLKISCKGSGYSFTSYWIGWVRQAPGKGLEWMGIIDPGDSRTRYSPSFQGQVTISADKSISTAYLQWSSLKASDTAMYYCARGQLYGGTYMDGWGQGTLVTVSS VL: DIALTQPASVSGSPGQSITISCTGTSSDIGGYNSVSWYQQHPGKAPKLMIYGVNNRPSGVSNRFSGSKSGNTASLTISGLQAEDEADYYCSSYDIESATPVFGGGTKLTVLG",0.09
5,"Example 146, conjugate of anti-mesothelin antibody MF-Ta (antibody, human IgG1, lambda, V domains shown, toxophore-linker on Lys NH, sites not given) VH: QVELVQSGAEVKKPGESLKISCKGSGYSFTSYWIGWVRQAPGKGLEWMGIIDPGDSRTRYSPSFQGQVTISADKSISTAYLQWSSLKASDTAMYYCARGQLYGGTYMDGWGQGTLVTVSS VL: DIALTQPASVSGSPGQSITISCTGTSSDIGGYNSVSWYQQHPGKAPKLMIYGVNNRPSGVSNRFSGSKSGNTASLTISGLQAEDEADYYCSSYDIESATPVFGGGTKLTVLG",13
6,"Example 145, conjugate of anti-mesothelin antibody MF-Ta (antibody, human IgG1, lambda, V domains shown, toxophore-linker on Lys NH, sites not given) VH: QVELVQSGAEVKKPGESLKISCKGSGYSFTSYWIGWVRQAPGKGLEWMGIIDPGDSRTRYSPSFQGQVTISADKSISTAYLQWSSLKASDTAMYYCARGQLYGGTYMDGWGQGTLVTVSS VL: DIALTQPASVSGSPGQSITISCTGTSSDIGGYNSVSWYQQHPGKAPKLMIYGVNNRPSGVSNRFSGSKSGNTASLTISGLQAEDEADYYCSSYDIESATPVFGGGTKLTVLG",7.4
7,"Example 149, conjugate of anti-mesothelin antibody MF-Ta (antibody, human IgG1, lambda, V domains shown, toxophore-linker on Lys NH, sites not given) VH: QVELVQSGAEVKKPGESLKISCKGSGYSFTSYWIGWVRQAPGKGLEWMGIIDPGDSRTRYSPSFQGQVTISADKSISTAYLQWSSLKASDTAMYYCARGQLYGGTYMDGWGQGTLVTVSS VL: DIALTQPASVSGSPGQSITISCTGTSSDIGGYNSVSWYQQHPGKAPKLMIYGVNNRPSGVSNRFSGSKSGNTASLTISGLQAEDEADYYCSSYDIESATPVFGGGTKLTVLG",3.1
8,"Example 155, conjugate of anti-mesothelin antibody MF-Ta (antibody, human IgG1, lambda, V domains shown, toxophore-linker, coupling residue not stated) VH: QVELVQSGAEVKKPGESLKISCKGSGYSFTSYWIGWVRQAPGKGLEWMGIIDPGDSRTRYSPSFQGQVTISADKSISTAYLQWSSLKASDTAMYYCARGQLYGGTYMDGWGQGTLVTVSS VL: DIALTQPASVSGSPGQSITISCTGTSSDIGGYNSVSWYQQHPGKAPKLMIYGVNNRPSGVSNRFSGSKSGNTASLTISGLQAEDEADYYCSSYDIESATPVFGGGTKLTVLG",0.5
9,"Example 140, conjugate of anti-mesothelin antibody MF-Ta (antibody, human IgG1, lambda, V domains shown, toxophore-linker on Lys NH, sites not given) VH: QVELVQSGAEVKKPGESLKISCKGSGYSFTSYWIGWVRQAPGKGLEWMGIIDPGDSRTRYSPSFQGQVTISADKSISTAYLQWSSLKASDTAMYYCARGQLYGGTYMDGWGQGTLVTVSS VL: DIALTQPASVSGSPGQSITISCTGTSSDIGGYNSVSWYQQHPGKAPKLMIYGVNNRPSGVSNRFSGSKSGNTASLTISGLQAEDEADYYCSSYDIESATPVFGGGTKLTVLG",6.8
10,"Example 141, conjugate of anti-mesothelin antibody MF-Ta (antibody, human IgG1, lambda, V domains shown, toxophore-linker on Cys sulfur, sites not given) VH: QVELVQSGAEVKKPGESLKISCKGSGYSFTSYWIGWVRQAPGKGLEWMGIIDPGDSRTRYSPSFQGQVTISADKSISTAYLQWSSLKASDTAMYYCARGQLYGGTYMDGWGQGTLVTVSS VL: DIALTQPASVSGSPGQSITISCTGTSSDIGGYNSVSWYQQHPGKAPKLMIYGVNNRPSGVSNRFSGSKSGNTASLTISGLQAEDEADYYCSSYDIESATPVFGGGTKLTVLG",43
11,"Example 154, conjugate of anti-mesothelin antibody MF-Ta (antibody, human IgG1, lambda, V domains shown, toxophore-linker on Cys sulfur, sites not given) VH: QVELVQSGAEVKKPGESLKISCKGSGYSFTSYWIGWVRQAPGKGLEWMGIIDPGDSRTRYSPSFQGQVTISADKSISTAYLQWSSLKASDTAMYYCARGQLYGGTYMDGWGQGTLVTVSS VL: DIALTQPASVSGSPGQSITISCTGTSSDIGGYNSVSWYQQHPGKAPKLMIYGVNNRPSGVSNRFSGSKSGNTASLTISGLQAEDEADYYCSSYDIESATPVFGGGTKLTVLG",2.2
12,"Example 153, conjugate of anti-mesothelin antibody MF-Ta (antibody, human IgG1, lambda, V domains shown, toxophore-linker on Cys sulfur, sites not given) VH: QVELVQSGAEVKKPGESLKISCKGSGYSFTSYWIGWVRQAPGKGLEWMGIIDPGDSRTRYSPSFQGQVTISADKSISTAYLQWSSLKASDTAMYYCARGQLYGGTYMDGWGQGTLVTVSS VL: DIALTQPASVSGSPGQSITISCTGTSSDIGGYNSVSWYQQHPGKAPKLMIYGVNNRPSGVSNRFSGSKSGNTASLTISGLQAEDEADYYCSSYDIESATPVFGGGTKLTVLG",30
13,"Example 144, conjugate of anti-mesothelin antibody MF-Ta (antibody, human IgG1, lambda, V domains shown, toxophore-linker on Lys NH, sites not given) VH: QVELVQSGAEVKKPGESLKISCKGSGYSFTSYWIGWVRQAPGKGLEWMGIIDPGDSRTRYSPSFQGQVTISADKSISTAYLQWSSLKASDTAMYYCARGQLYGGTYMDGWGQGTLVTVSS VL: DIALTQPASVSGSPGQSITISCTGTSSDIGGYNSVSWYQQHPGKAPKLMIYGVNNRPSGVSNRFSGSKSGNTASLTISGLQAEDEADYYCSSYDIESATPVFGGGTKLTVLG",2.7
14,"Example 142, conjugate of anti-mesothelin antibody MF-Ta (antibody, human IgG1, lambda, V domains shown, toxophore-linker on Cys sulfur, sites not given) VH: QVELVQSGAEVKKPGESLKISCKGSGYSFTSYWIGWVRQAPGKGLEWMGIIDPGDSRTRYSPSFQGQVTISADKSISTAYLQWSSLKASDTAMYYCARGQLYGGTYMDGWGQGTLVTVSS VL: DIALTQPASVSGSPGQSITISCTGTSSDIGGYNSVSWYQQHPGKAPKLMIYGVNNRPSGVSNRFSGSKSGNTASLTISGLQAEDEADYYCSSYDIESATPVFGGGTKLTVLG",0.27
15,"Example 148, conjugate of anti-mesothelin antibody MF-Ta (antibody, human IgG1, lambda, V domains shown, toxophore-linker on Lys NH, sites not given) VH: QVELVQSGAEVKKPGESLKISCKGSGYSFTSYWIGWVRQAPGKGLEWMGIIDPGDSRTRYSPSFQGQVTISADKSISTAYLQWSSLKASDTAMYYCARGQLYGGTYMDGWGQGTLVTVSS VL: DIALTQPASVSGSPGQSITISCTGTSSDIGGYNSVSWYQQHPGKAPKLMIYGVNNRPSGVSNRFSGSKSGNTASLTISGLQAEDEADYYCSSYDIESATPVFGGGTKLTVLG",425
16,"Example 156, conjugate of anti-mesothelin antibody MF-Ta (antibody, human IgG1, lambda, V domains shown, toxophore-linker, coupling residue not stated) VH: QVELVQSGAEVKKPGESLKISCKGSGYSFTSYWIGWVRQAPGKGLEWMGIIDPGDSRTRYSPSFQGQVTISADKSISTAYLQWSSLKASDTAMYYCARGQLYGGTYMDGWGQGTLVTVSS VL: DIALTQPASVSGSPGQSITISCTGTSSDIGGYNSVSWYQQHPGKAPKLMIYGVNNRPSGVSNRFSGSKSGNTASLTISGLQAEDEADYYCSSYDIESATPVFGGGTKLTVLG",4.6
17,"Example 158, conjugate of anti-mesothelin antibody MF-Ta (antibody, human IgG1, lambda, V domains shown, toxophore-linker, coupling residue not stated) VH: QVELVQSGAEVKKPGESLKISCKGSGYSFTSYWIGWVRQAPGKGLEWMGIIDPGDSRTRYSPSFQGQVTISADKSISTAYLQWSSLKASDTAMYYCARGQLYGGTYMDGWGQGTLVTVSS VL: DIALTQPASVSGSPGQSITISCTGTSSDIGGYNSVSWYQQHPGKAPKLMIYGVNNRPSGVSNRFSGSKSGNTASLTISGLQAEDEADYYCSSYDIESATPVFGGGTKLTVLG",0.18
18,"Example 151, conjugate of anti-mesothelin antibody MF-Ta (antibody, human IgG1, lambda, V domains shown, toxophore-linker on Cys sulfur, sites not given) VH: QVELVQSGAEVKKPGESLKISCKGSGYSFTSYWIGWVRQAPGKGLEWMGIIDPGDSRTRYSPSFQGQVTISADKSISTAYLQWSSLKASDTAMYYCARGQLYGGTYMDGWGQGTLVTVSS VL: DIALTQPASVSGSPGQSITISCTGTSSDIGGYNSVSWYQQHPGKAPKLMIYGVNNRPSGVSNRFSGSKSGNTASLTISGLQAEDEADYYCSSYDIESATPVFGGGTKLTVLG",> 1000
19,"Example 143, conjugate of anti-mesothelin antibody MF-Ta (antibody, human IgG1, lambda, V domains shown, toxophore-linker on Lys NH, sites not given) VH: QVELVQSGAEVKKPGESLKISCKGSGYSFTSYWIGWVRQAPGKGLEWMGIIDPGDSRTRYSPSFQGQVTISADKSISTAYLQWSSLKASDTAMYYCARGQLYGGTYMDGWGQGTLVTVSS VL: DIALTQPASVSGSPGQSITISCTGTSSDIGGYNSVSWYQQHPGKAPKLMIYGVNNRPSGVSNRFSGSKSGNTASLTISGLQAEDEADYYCSSYDIESATPVFGGGTKLTVLG",0.3
20,"Example 152, conjugate of anti-mesothelin antibody MF-Ta (antibody, human IgG1, lambda, V domains shown, toxophore-linker on Lys NH, sites not given) VH: QVELVQSGAEVKKPGESLKISCKGSGYSFTSYWIGWVRQAPGKGLEWMGIIDPGDSRTRYSPSFQGQVTISADKSISTAYLQWSSLKASDTAMYYCARGQLYGGTYMDGWGQGTLVTVSS VL: DIALTQPASVSGSPGQSITISCTGTSSDIGGYNSVSWYQQHPGKAPKLMIYGVNNRPSGVSNRFSGSKSGNTASLTISGLQAEDEADYYCSSYDIESATPVFGGGTKLTVLG",4.1
